From patent US20200317779A1

Experiments:
[1] = biological target: recombinant cynomolgus monkey CD3ε/δ heterodimer (cynomolgus monkey) (UniProt Q95LI5); assay: ELISA, coated CD3ε/δ
[2] = biological target: recombinant human CD3ε/δ heterodimer (human) (UniProt P07766); assay: ELISA, coated CD3ε/δ
[3] = biological target: recombinant cynomolgus monkey CD3ε/δ heterodimer (cynomolgus monkey) (UniProt Q95LI5); assay: BLI (Octet), antigen on anti-Penta His sensor, antibody 50 nM
[4] = biological target: recombinant human CD3ε/δ heterodimer (human) (UniProt P07766); assay: as above

Chain of recombinant cynomolgus monkey CD3ε/δ heterodimer (cynomolgus monkey) (Q95LI5 22-117, stated change not applied, chain 1 of 2): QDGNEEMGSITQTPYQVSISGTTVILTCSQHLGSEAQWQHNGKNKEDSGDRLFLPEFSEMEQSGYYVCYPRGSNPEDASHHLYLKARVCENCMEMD
Chain of recombinant cynomolgus monkey CD3ε/δ heterodimer (cynomolgus monkey) (Q95LI8 22-105, stated change not applied, chain 2 of 2, further chain): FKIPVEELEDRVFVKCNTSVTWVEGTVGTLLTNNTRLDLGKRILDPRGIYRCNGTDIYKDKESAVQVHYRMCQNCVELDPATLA
Chain of recombinant human CD3ε/δ heterodimer (human) (P07766 23-126, stated change not applied, chain 1 of 2): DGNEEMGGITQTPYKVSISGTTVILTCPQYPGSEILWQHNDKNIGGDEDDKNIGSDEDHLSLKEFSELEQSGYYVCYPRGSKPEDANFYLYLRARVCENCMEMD
Chain of recombinant human CD3ε/δ heterodimer (human) (P04234 22-105, stated change not applied, chain 2 of 2, further chain): as the sequence (Q95LI8 22-105, stated change not applied, chain 2 of 2, further chain) above, with V5I, K15N, V20I, T32S, N33D, N34I, A64T, N74S, L83V counted along it

| Binder | Absorbance (450 nm) [1] | Absorbance (450 nm) [2] | Kd [3] [nM] | koff [3] [s⁻¹] | kon [3] [M⁻¹ s⁻¹] | Kd [4] [nM] | koff [4] [s⁻¹] | kon [4] [M⁻¹ s⁻¹] |
| --- | --- | --- | --- | --- | --- | --- | --- | --- |
| G15 (antibody, human IgG1, lambda, L234A L235A, V domains shown) VH: EVQLVESGGGLVQPGGSLKLSCAASGFTFNTYAMNWVRQASGKGLEWVARIRSKYNNYATYYADSVKDRFTISRDDSQSTAYLQMNSLKTEDTAVYYCVRHGNFGNSYVSWFAYWGQGTLVTVSS VL: QAVVTQEPSLTVSPGGTVTLTCRSSTGAVTTSNYANWVQQKPGQAPRGLIGGTNKRAPWTPARFSGSLLGGKAALTLSGAQPEDEAEYYCALWYSNLWVFGGGTKLTVLG | 2.69 | 2.42 | 1.72 | 0.000461 | 269000 | 1.59 | 0.000332 | 209000 |
| A15 (antibody, human IgG1, lambda, L234A L235A, V domains shown) VH: EVQLVESGGGLVQPGGSLKLSCAASGFTFNTYAMNWVRQASGKGLEWVGRIRSKYNNYATYYADSVKDRFTISRDDSKNTAYLQMNSLKTEDTAVYYCVRHGNFGNSYVSWFAYWGQGTLVTVSS VL: QAVVTQEPSLTVSPGGTVTLTCRSSTGAVTTSNYANWVQQKPGQAPRGLIGGTNKRAPWTPARFSGSLLGGKAALTLSGAQPEDEAEYYCALWYSNLWVFGGGTKLTVLG | 2.86 | 2.79 | 0.364 | 0.000165 | 453000 | 0.296 | 9.58e-05 | 323000 |
| B07 (antibody, human IgG1, lambda, L234A L235A, V domains shown) VH: EVQLVESGGGLVQPGGSLKLSCAASGFTFNTYAMNWVRQASGKGLEWVGRIRSKYNNYATYYADSVKDRFTISRDDSKNTLYLQMNSLKTEDTAVYYCVRHGNFGNSYVSWFAYWGQGTLVTVSS VL: QAVVTQEPSLTVSPGGTVTLTCRSSTGAVTTSNYANWFQQKPGQAPRGLIGGTNKRAPWTPARFSGSLLGGKAALTLSGAQPEDEAEYYCALWYSNLWVFGGGTKLTVLG | 2.45 | 0.718 | 30.9 | 0.00642 | 208000 | 21.4 | 0.00423 | 198000 |
| B08 (antibody, human IgG1, lambda, L234A L235A, V domains shown) VH: EVQLVESGGGLVQPGGSLKLSCAASGFTFNTYAMNWVRQASGKGLEWVGRIRSKYNNYATYYADSVKDRFTISRDDSKNTLYLQMNSLKTEDTAVYYCVRHGNFGNSYVSWFAYWGQGTLVTVSS VL: QAVVTQEPSLTVSPGGTVTLTCRSSTGAVTTSNYANWFQQKPGQAPRGLIGGTNKRAPWTPARFSGSLLGDKAALTLSGAQPEDEAEYYCALWYSNLWVFGGGTKLTVLG | 2.19 | 0.424 | 26.3 | 0.00525 | 199000 | 27.6 | 0.00407 | 148000 |
| B16 (antibody, human IgG1, lambda, L234A L235A, V domains shown) VH: EVQLVESGGGLVQPGGSLKLSCAASGFTFNTYAMNWVRQASGKGLEWVGRIRSKYNNYATYYADSVKDRFTISRDDSKNTLYLQMNSLKTEDTAVYYCVRHGNFGNSYVSWFAYWGQGTLVTVSS VL: QAVVTQEPSLTVSPGGTVTLTCRSSTGAVTTSNYANWVQQKPGQAPRGLIGGTNKRAPWTPARFSGSLLGDKAALTLSGAQPEDEAEYYCALWYSNLWVFGGGTKLTVLG | 2.93 | 2.37 | 0.66 | 0.000308 | 466000 | 0.445 | 0.000144 | 322000 |
| H16 (antibody, human IgG1, lambda, L234A L235A, V domains shown) VH: EVQLVESGGGLVQPGGSLKLSCAASGFTFNTYAMNWVRQASGKGLEWVARIRSKYNNYATYYADSVKDRFTISRDDSQSTLYLQMNSLKTEDTAVYYCVRHGNFGNSYVSWFAYWGQGTLVTVSS VL: QAVVTQEPSLTVSPGGTVTLTCRSSTGAVTTSNYANWVQQKPGQAPRGLIGGTNKRAPWTPARFSGSLLGDKAALTLSGAQPEDEAEYYCALWYSNLWVFGGGTKLTVLG | 2.87 | 2.46 | 1.13 | 0.000206 | 182000 | 0.881 | 0.00012 | 136000 |
| B15 (antibody, human IgG1, lambda, L234A L235A, V domains shown) VH: EVQLVESGGGLVQPGGSLKLSCAASGFTFNTYAMNWVRQASGKGLEWVGRIRSKYNNYATYYADSVKDRFTISRDDSKNTLYLQMNSLKTEDTAVYYCVRHGNFGNSYVSWFAYWGQGTLVTVSS VL: QAVVTQEPSLTVSPGGTVTLTCRSSTGAVTTSNYANWVQQKPGQAPRGLIGGTNKRAPWTPARFSGSLLGGKAALTLSGAQPEDEAEYYCALWYSNLWVFGGGTKLTVLG | 3.16 | 2.71 | 0.627 | 0.000328 | 523000 | 0.521 | 0.000193 | 371000 |

Continued by falling Kd [3], values first:

| Absorbance (450 nm) [1] | Absorbance (450 nm) [2] | Kd [3] [nM] | koff [3] [s⁻¹] | kon [3] [M⁻¹ s⁻¹] | Kd [4] [nM] | koff [4] [s⁻¹] | kon [4] [M⁻¹ s⁻¹] | Binder |
| --- | --- | --- | --- | --- | --- | --- | --- | --- |
| 2.77 | 2.48 | 1.75 | 0.00034 | 195000 | 1.32 | 0.000201 | 153000 | G16 (antibody, human IgG1, lambda, L234A L235A, V domains shown) VH: EVQLVESGGGLVQPGGSLKLSCAASGFTFNTYAMNWVRQASGKGLEWVARIRSKYNNYATYYADSVKDRFTISRDDSQSTAYLQMNSLKTEDTAVYYCVRHGNFGNSYVSWFAYWGQGTLVTVSS VL: QAVVTQEPSLTVSPGGTVTLTCRSSTGAVTTSNYANWVQQKPGQAPRGLIGGTNKRAPWTPARFSGSLLGDKAALTLSGAQPEDEAEYYCALWYSNLWVFGGGTKLTVLG |
| 2.84 | 2.44 | 1.17 | 0.000269 | 230000 | 0.953 | 0.000189 | 199000 | H15 (antibody, human IgG1, lambda, L234A L235A, V domains shown) VH: EVQLVESGGGLVQPGGSLKLSCAASGFTFNTYAMNWVRQASGKGLEWVARIRSKYNNYATYYADSVKDRFTISRDDSQSTLYLQMNSLKTEDTAVYYCVRHGNFGNSYVSWFAYWGQGTLVTVSS VL: QAVVTQEPSLTVSPGGTVTLTCRSSTGAVTTSNYANWVQQKPGQAPRGLIGGTNKRAPWTPARFSGSLLGGKAALTLSGAQPEDEAEYYCALWYSNLWVFGGGTKLTVLG |
| 2.8 | 2.54 | 0.657 | 0.000243 | 370000 | 0.293 | 8.07e-05 | 275000 | A16 (antibody, human IgG1, lambda, L234A L235A, V domains shown) VH: EVQLVESGGGLVQPGGSLKLSCAASGFTFNTYAMNWVRQASGKGLEWVGRIRSKYNNYATYYADSVKDRFTISRDDSKNTAYLQMNSLKTEDTAVYYCVRHGNFGNSYVSWFAYWGQGTLVTVSS VL: QAVVTQEPSLTVSPGGTVTLTCRSSTGAVTTSNYANWVQQKPGQAPRGLIGGTNKRAPWTPARFSGSLLGDKAALTLSGAQPEDEAEYYCALWYSNLWVFGGGTKLTVLG |
